In EP0665886B1 (COLD SPRING HARBOR LABORATORY, dated 2003):
One block for each molecule: values may come before it.

Target: T1, human cyclin D1 (human, UniProt P24385 1-295)
T1 construct: Endogenous 35 kDa protein in co-immunoprecipitations; also called p35^cyclin D1; p35
Test: anti-cyclin D1 immunoprecipitation

T1 sequence (P24385 whole entry): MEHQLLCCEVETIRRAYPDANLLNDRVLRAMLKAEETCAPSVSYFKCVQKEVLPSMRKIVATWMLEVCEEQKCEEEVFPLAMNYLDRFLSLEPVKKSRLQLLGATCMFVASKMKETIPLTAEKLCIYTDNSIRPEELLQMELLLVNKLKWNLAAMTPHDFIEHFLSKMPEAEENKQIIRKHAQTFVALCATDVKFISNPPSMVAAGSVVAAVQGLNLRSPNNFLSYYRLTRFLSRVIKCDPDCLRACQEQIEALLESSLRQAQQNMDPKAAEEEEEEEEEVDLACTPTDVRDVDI

share of cyclin D1-associated protein lost in RIPA buffer (0.1% SDS) against NP40 (0.5%) buffer: > 90%
Molecule: p21 (polypeptide of 21 kDa apparent molecular weight)

share of cyclin D1-associated protein lost in RIPA buffer (0.1% SDS) against NP40 (0.5%) buffer: > 90%
B1: human CDK4 (enzyme, UniProt P11802 1-303, looked up)
chain: MATSRYEPVAEIGVGAYGTVYKARDPHSGHFVALKSVRVPNGGGGGGGLPISTVREVALLRRLEAFEHPNVVRLMDVCATSRTDREIKVTLVFEHVDQDLRTYLDKAPPPGLPAETIKDLMRQFLRGLDFLHANCIVHRDLKPENILVTSGGTVKLADFGLARIYSYQMALTPVVVTLWYRAPEVLLQSTYATPVDMWSVGCIFAEMFRRKPLFCGNSEADQLGKIFDLIGLPPEDDWPRDVSLPRGAFPPRGPRPVQSVVPEMEESGAQLLLEMLTFNPHKRISAFRALQHSYLHKDEGNPE
notes: also called PSK-J3; p33^CDK4
